According to article PMC3181075:
Like-named read-outs stand apart in the source and are kept apart here.

Assays:
[1] = target: human carbonic anhydrase XII, catalytic domain (human)
[2] = target: human carbonic anhydrase XII, catalytic domain (human); experiment: other fluorescence titration

polylysine (peptide)
Kd [1]: 3.3 µM | Kd [2]: 6 µM
